Target: the molecule itself
Assay: single molecule analysis

B1: EGFP-S1C 4KA (domain or fragment, UniProt Q13586 342-465, looked up)
chain: YAPEALQKWLQLTHEVEVQYYNIKKQNAEKQLLVAKEGAEAIAAARNTLFGTFHVAHSSSLDDVDHKILTAKQALSEVTAALRERLHRWQQIEILCGFQIVNNPGIHSLVAALNIDPSWMGSTR
stoichiometry N: 2

Reference: article PMC5519287 (Cell reports, 2017)
